Measured values from patent publication US20200332015A1 (NAMAB THERAPEUTICS, published 2020).

Assays:
[1] = biological target: T1, human CD137 expressed on Jurkat cells (human, UniProt Q07011 24-255); assay: cell-based or functional assay
[2] = biological target: T1, human CD137 expressed on Jurkat cells; assay: cell-based or functional assay; remark: listed apart in the source
[3] = biological target: T2, recombinant human CD137 extracellular domain (Peprotech, cat. 310-15-1MG) (human, UniProt Q07011 24-186); assay: SPR T200, Morrison format captured, ECD analyte
T2 construct: also called human CD137 ECD; CD137 ECD
Description: (§1) Affinity to PDL1 of the different species was determined by SPR measurements using a Biacore T200 device (GE Healthcare). An antibody specific for the Fc region of human IgGs was immobilized on a sensor chip (CM5 sensor chip, GE Healthcare) by amine-coupling. For all formats, with the exception of the Fc containing Morrison formats, PDL1-Fc chimeric protein from different species were captured by the immobilized antibody. Three-fold serial dilutions of the molecules specific for PDL1 (0.12-90 nM) were injected into the flow cells for three minutes and dissociation was monitored for 10 minutes. After each injection cycle, surfaces were regenerated with one injection of a 3 M MgCl₂ solution. The apparent dissociation (kd) and association (kₐ) rate constants and the apparent dissociation equilibrium constant (KD) were calculated using one-to-one Langmuir binding model. Affinity to CD137 of the different species was determined using the identical setup as for PDL1 with the exception that CD137-Fc chimeric proteins from different species were captured by the immobilized antibody.
(§2) The Fc containing formats were directly captured by the antibody specific for the Fc region of human IgGs. Two-fold serial dilutions of PDL1 extracellular domain or CD137 extracellular domain ranging from 90 to 0.35 nM were tested for binding to the IgG captured on the biosensor chip. After each injection cycle, surfaces were regenerated with one injection of a 3 M MgCl2 solution.

[4] = biological target: T3, human PDL1 extracellular domain (human, UniProt Q9NZQ7 19-238); assay: SPR T200, Morrison format captured, ECD analyte
T3 construct: extracellular domain; Analyte for the Fc containing Morrison formats
Description: as §1, §2

[5] = biological target: T1, human CD137 expressed on Jurkat cells; assay: cell-based or functional assay; remark: listed apart in the source
[6] = biological target: T1, human CD137 expressed on Jurkat cells; assay: cell-based or functional assay; remark: listed apart in the source

B1: PRO1060 (33-03-G02 IgG1 HC with 38_02_A04 sc01 scFv, PDL1/CD137(scFv) silent Morrison) (bispecific antibody)
light: DIQMTQSPSSLSASVGDRVTITCQASQSINDYLAWYQQKPGKAPKLLIYKASTLASGVPSRFSGSGSGTDFTLTISSLQPEDFATYYCQQGYIITDIDNVFGTGTKVTVLGTVAAPSVFIFPPSDEQLKSGTASVVCLLNNFYPREAKVQWKVDNALQSGNSQESVTEQDSKDSTYSLSSTLTLSKADYEKHKVYACEVTHQGLSSPVTKSFNRGEC
heavy: QVQLQESGPGLVKPSETLSLTCKVSGFSFSSGYDMCWIRQPPGKGLEWIGCVVAGSVDITYYASWAKGRVTISVDSSKNQFSLKLSSVTAADTAVYYCARKDAYSDAFNLWGQGTLVTVSSASTKGPSVFPLAPSSKSTSGGTAALGCLVKDYFPEPVTVSWNSGALTSGVHTFPAVLQSSGLYSLSSVVTVPSSSLGTQTYICNVNHKPSNTKVDKRVEPKSCDKTHTCPPCPAPEAAGGPSVFLFPPKPKDTLMISRTPEVTCVVVDVSHEDPEVKFNWYVDGVEVHNAKTKPREEQYNSTYRVVSVLTVLHQDWLNGKEYKCKVSNKALGAPIEKTISKAKGQPREPQVYTLPPSREEMTKNQVSLTCLVKGFYPSDIAVEWESNGQPENNYKTTPPVLDSDGSFFLYSKLTVDKSRWQQGNVFSCSVMHEALHNHYTQKSLSLSPGKGGGGSGGGGSIQMTQSPSSLSASVGDRVTITCQASQSINNVLAWYQQKPGKAPKLLIYRASTLASGVPSRFSGSGSGTDFTLTISSLQPEDFATYYCQSSYGNYGDFGTGTKVTVLGGGGGSGGGGSGGGGSGGGGSQVQLQESGPGLVKPSETLSLTCKVSGFSFSNSYWICWIRQPPGKGLEWIGCTFVGSSDSTYYANWAKGRVTISVDSSKNQFSLKLSSVTAADTAVYYCARHPSDAVYGYANNLWGQGTLVTVSS
notes: IgG1 with scFv fused to the heavy chain; called bivalent; also called Morrison-H
[1]
  EC50 NFkB-luciferase, CHO-PDL1 cells, 24 h: 80.8 ng/mL
[2]
  EC50 NFkB-luciferase, CHO-PDL1 cells, 6 h: 56.4 ng/mL
[3]
  Kd: 1.3 nM
  koff: 0.00039 s⁻¹
  kon: 300000 M⁻¹ s⁻¹
[4]
  Kd: 0.036 nM
  koff: 4.6e-05 s⁻¹
  kon: 1.3e+06 M⁻¹ s⁻¹
[5]
  max. activation, HCC827 +IFNg, 24h: 97%
  max. activation, NF-kB reporter gene, CHO-PD-L1, 24h: 144%
  rel. IC50 (urelumab/test), HCC827 +IFNg, 24h: 3.01 ratio
  rel. IC50 (urelumab/test), HCC827 -IFNg, 24h: 3.5 ratio
  rel. IC50 (urelumab/test), NF-kB reporter gene, CHO-PD-L1, 24h: 0.58 ratio
[6]
  EC50 NFkB-luciferase, HCC827 with IFNy stimulation: 17.5 ng/mL
  EC50 NFkB-luciferase, HCC827 without IFNy stimulation: 13.6 ng/mL
